Values belong to the binder of their own block, whether it stands above or below them.
Experiments:
[1] = target: T1, rHuman IGF-1 sR (IGF-1 sR), CF (R&D Systems Cat#391-GR) (human, UniProt P08069 31-932); assay: ECL (MSD Multi-Spot) binding assay, antigen spotted on plate; Fab 17 nM; blank spot 143
T1 construct: Bought soluble receptor; also called insulin-like growth factor-1 soluble receptor; IGF-R1

[2] = target: T2, rHuman ErbB2/Fc Chimera, CF (R&D Systems Cat#1129-ER) (human, UniProt P04626 23-652); assay: as above
T2 construct: Bought Fc chimera; also called HER2/neu; human epidermal growth factor 2 receptor; Fc part of the bought chimera not given

[3] = target: T3, rHuman Notch-1/Fc Chimera, CF (R&D Systems Cat#3647-TK) (human, UniProt P46531 19-526); assay: as above
T3 construct: Bought Fc chimera; Fc part of the bought chimera not given

[4] = target: T4, rHuman EGF R/Fc Chimera, CF (R&D Systems Cat#344-ER) (human, UniProt P00533 25-645); assay: as above
T4 construct: Bought Fc chimera; also called epidermal growth factor receptor; Fc part of the bought chimera not given

[5] = target: T5, rHuman Erythropoietin R/Fc Chimera, CF (R&D Systems Cat#963-ER) (human, UniProt P19235 25-250); assay: as above
T5 construct: Bought Fc chimera; also called EPO R/Fc; Epo R; Fc part of the bought chimera not given
T5 sequence: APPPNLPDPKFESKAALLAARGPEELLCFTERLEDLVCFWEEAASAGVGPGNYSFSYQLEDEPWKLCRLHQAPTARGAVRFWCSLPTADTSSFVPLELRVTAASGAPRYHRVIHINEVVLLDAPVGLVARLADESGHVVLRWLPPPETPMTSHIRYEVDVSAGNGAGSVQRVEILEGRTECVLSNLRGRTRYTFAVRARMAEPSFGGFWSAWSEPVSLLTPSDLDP

[6] = target: T6, Recombinant Human DLL4 (R&D Systems Cat#1506-D4/CF) (human, UniProt Q9NR61 27-524); assay: as above
T6 construct: Bought recombinant protein; also called delta-like protein 4; rHuman DLL4

[7] = target: T7, rHuman CD44/Fc Chimera, CF (R&D Systems Cat#3660-CD) (human, UniProt P16070 21-220); assay: as above
T7 construct: Bought Fc chimera; Fc part of the bought chimera not given

[8] = target: T8, rHuman P-Cadherin/Fc Chimera, CF (R&D Systems Cat#861-PC) (human, UniProt P22223 108-654); assay: ECL (MSD Multi-Spot) binding assay, antigen spotted on plate; Fab 120 nM; blank spot 363
T8 construct: Bought Fc chimera; also called CDH3; Fc part of the bought chimera not given

[9] = target: T3, rHuman Notch-1/Fc Chimera, CF (R&D …); assay: as above
[10] = target: T5, rHuman Erythropoietin R/Fc Chimera, CF …; assay: as above
[11] = target: T6, Recombinant Human DLL4 (R&D Systems …); assay: as above
[12] = target: T7, rHuman CD44/Fc Chimera, CF (R&D Systems …); assay: as above
[13] = target: T5, rHuman Erythropoietin R/Fc Chimera, CF …; assay: ECL (MSD Multi-Spot) binding assay, antigen spotted on plate; Fab 3.8 nM; blank spot 198
[14] = target: T6, Recombinant Human DLL4 (R&D Systems …); assay: as above
[15] = target: T9, rHuman HGF R/c-MET/Fc Chimera, CF (R&D Systems Cat#358-MT/CF) (human, UniProt P08581 25-932); assay: ECL (MSD multi-spot), antigen on plate, Fab 10 nM
T9 construct: Bought Fc chimera; also called HGF R/Fc; not shown: Fc of the bought chimera

[16] = target: T10, rHuman P-Cadherin/Fc Chimera, CF (R&D Systems Cat#861-PC) (human, UniProt P22223 108-654); assay: ECL (MSD multi-spot), antigen on plate, Fab 10 nM
T10 construct: Bought Fc chimera; also called CDH3; not shown: Fc of the bought chimera

[17] = target: T11, rHuman IGF-1 sR (insulin-like growth factor-1 soluble receptor), CF (R&D Systems Cat#391-GR) (human, UniProt P08069 31-932); assay: ECL (MSD multi-spot), antigen on plate, Fab 10 nM
T11 construct: Bought soluble receptor; also called IGF-R1

[18] = target: T12, Recombinant Human DLL4 (R&D Systems Cat#1506-D4/CF) (human, UniProt Q9NR61 27-524); assay: ECL (MSD multi-spot), antigen on plate, Fab 10 nM
T12 construct: Bought recombinant protein; also called delta-like protein 4

[19] = target: T13, rHuman EGF R/Fc Chimera, CF (R&D Systems Cat#344-ER) (human, UniProt P00533 25-645); assay: ECL (MSD multi-spot), antigen on plate, Fab 10 nM
T13 construct: Bought Fc chimera; also called ErbB-1; not shown: Fc of the bought chimera
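Note: blank spot per well as comparator with Hit at signal to blank ratio of 4 or more.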

ECL signal [1]: 872
ECL signal [2]: 1030
ECL signal [3]: 558
ECL signal [4]: 805
ECL signal [5]: 620
ECL signal [6]: 7160
ECL signal [7]: 518
B1: Fab VH5-51_IGHD5-18*01>3_IGHJ4*01 & V3-4_IGLJ1*01 (Fab, V domains shown)
VH: EVQLVQSGAEVKKPGESLKISCKGSGYSFTSYWIGWVRQMPGKGLEWMGIIYPGDSDTRYSPSFQGQVTISADKSISTAYLQWSSLKASDTAMYYCARRGYSYGYDYFDYWGQGTLVTVSS
VL: QTVVTQEPSFSVSPGGTVTLTCGLSSGSVSTSYYPSWYQQTPGQAPRTLIYSTNTRSSGVPDRFSGSILGNKAALTITGAQADDESDYYCVLYMGSGISYVFGTGTKVTVL
notes: Tested as a Fab made in E. coli; also called IGHV5-51*03

ECL signal [8]: 450
ECL signal [9]: 472
ECL signal [10]: 431
ECL signal [11]: 938
ECL signal [12]: 442
ECL signal [13]: 407
ECL signal [14]: 462
B2: Fab VH6-1_IGHD3-3*01_IGHJ4*01 & V4-3_IGLJ4*01 (Fab, V domains shown)
VH: QVQLQQSGPGLVKPSQTLSLTCAISGDSVSSNSAAWNWIRQSPSRGLEWLGRTYYRSKWYNDYAVSVKSRITINPDTSKNQFSLQLNSVTPEDTAVYYCAREYYDFWSGYYTDYFDYWGQGTLVTVSS
VL: QPVLTQPTSLSASPGASARLTCTLRSGINLGSYRIFWYQQKPESPPRYLLSYYSDSSKHQGSGVPSRFSGSKDASSNAGILVISGLQSEDEADYYCMIWHSSASFVFGGGTQLIIL
notes: Tested as a Fab made in E. coli; also called IGHV6-1*01

ECL signal [15]: 136 ECL signal
ECL signal [16]: 216 ECL signal
ECL signal [17]: 152 ECL signal
ECL signal [18]: 26900 ECL signal
ECL signal [19]: 207 ECL signal
B3: Fab VH1-46_IGHD6-6*01_IGHJ1*01_S102A_S103P_S104F & L6_IGKJ1*01_S28P (Fab, V domains shown)
VH: QVQLVQSGAEVKKPGASVKVSCKASGYTFTSYYMHWVRQAPGQGLEWMGIINPSGGSTSYAQKFQGRVTMTRDTSTSTVYMELSSLRSEDTAVYYCAREEYAPFSAEYFQHWGQGTLVTVSS
VL: EIVLTQSPATLSLSPGERATLSCRASQPVSSYLAWYQQKPGQAPRLLIYDASNRATGIPARFSGSGSGTDFTLTISSLEPEDFAVYYCQQRSNWPPWTFGQGTKVEIKR
notes: Fab

Reference: patent US20120058906A1 (published 2012)
